Patent publication US20090074722A1, “Products and methods for treating PTP lar diseases” (MAX-PLANCK-GESELLSCHAFT ZUR, priority 1999, published 2009)

Molecular target: T1, plakoglobin (Homo sapiens, UniProt P14923)
T1 construct: expressed in transfected cells; host or cells: human embryonic kidney 293 cells, transient, pervanadate-treated, used as lysate; the GST-PTP LARi partner was made in E. coli
T1 sequence (P14923 1-745): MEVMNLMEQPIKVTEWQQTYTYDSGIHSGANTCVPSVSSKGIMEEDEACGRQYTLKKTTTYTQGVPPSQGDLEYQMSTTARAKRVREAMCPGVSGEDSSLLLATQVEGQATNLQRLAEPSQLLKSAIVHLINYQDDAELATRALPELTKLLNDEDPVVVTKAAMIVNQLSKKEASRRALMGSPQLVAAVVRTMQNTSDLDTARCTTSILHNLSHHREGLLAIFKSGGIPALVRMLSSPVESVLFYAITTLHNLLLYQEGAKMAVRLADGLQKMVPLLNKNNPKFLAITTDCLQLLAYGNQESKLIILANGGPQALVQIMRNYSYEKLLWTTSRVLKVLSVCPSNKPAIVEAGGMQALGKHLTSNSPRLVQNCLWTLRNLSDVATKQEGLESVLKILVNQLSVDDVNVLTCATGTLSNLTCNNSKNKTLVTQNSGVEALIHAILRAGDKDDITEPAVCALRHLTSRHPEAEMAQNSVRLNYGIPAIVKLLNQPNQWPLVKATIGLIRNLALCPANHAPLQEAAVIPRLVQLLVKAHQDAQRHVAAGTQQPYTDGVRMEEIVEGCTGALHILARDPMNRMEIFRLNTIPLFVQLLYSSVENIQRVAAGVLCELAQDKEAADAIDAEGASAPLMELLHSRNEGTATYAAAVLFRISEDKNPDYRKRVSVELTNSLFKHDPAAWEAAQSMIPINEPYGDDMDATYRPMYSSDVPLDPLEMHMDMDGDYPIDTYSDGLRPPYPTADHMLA
Assay: In vitro binding assay (GST pull-down), plakoglobin
Conditions: lysates of pervanadate treated 293 cells overexpressing plakoglobin
Experimental: After 24 h of serum starvation, the cells were stimulated with pervanadate for 10 minutes before lysis. Equal amounts of lysats were incubated with the GST-PTP LAR cytoplasmic fusion protein (GST-PTP LARi) or a threefold molar excess of GST. Lysates of control vector transfected 293 cells were incubated with the GST-PTP LAR cytoplasmic fusion protein (GST-PTP LARi). Complexes were immobilized on glutathione-sepharose, and precipitates were separated by SDS-PAGE. Bound proteins were analyzed by Western blotting with an anti-β-catenin antibody (left) or an antibody against plakoglobin (right). Arrows indicate the proteins of interest. Molecular mass standards in kilodaltons are shown on the left. […]
To investigate the potential association of PTP LAR with the cadherin/catenin-complex in intact cells, subconfluent human MCF7 cells were stimulated with EGF, were lysed, and were immunoprecipitated with antibodies either against PTP LAR or the cadherin/catenin-complex. Western blotting analysis with specific antibodies to β-catenin and E-cadherin (FIG. 5A) or plakoglobin and E-cadherin (FIG. 5B) detected these proteins in anti-human PTP LAR immunoprecipitates with the monoclonal antibody 11.1A against the extracellular domain of human PTP LAR and vice versa. […]

association with plakoglobin: associate specifically
B1: GST-PTP LAR cytoplasmic: GST fusion protein comprising the entire cytoplasmic domain (amino acids 1259-1881) of human PTP LAR (protein)
chain: PEMLWVTGPVLAVILIILIVIAILLFKRKRTHSPSSKDEQSIGLKDSLLAHSSDPVEMRRLNYQTPGMRDHPPIPITDLADNIERLKANDGLKFSQEYESIDPGQQFTWENSNLEVNKPKNRYANVIAYDHSRVILTSIDGVPGSDYINANYIDGYRKQNAYIATQGPLPETMGDFWRMVWEQRTATVVMMTRLEEKSRVKCDQYWPARGTETCGLIQVTLLDTVELATYTVRTFALHKSGSSEKRELRQFQFMAWPDHGVPEYPTPILAFLRRVKACNPLDAGPMVVHCSAGVGRTGCFIVIDAMLERMKHEKTVDIYGHVTCMRSQRNYMVQTEDQYVFIHEALLEAATCGHTEVPARNLYAHIQKLGQVPPGESVTAMELEFKLLASSKAHTSRFISANLPCNKFKNRLVNIMPYELTRVCLQPIRGVEGSDYINASFLDGYRQQKAYIATQGPLAESTEDFWRMLWEHNSTIIVMLTKLREMGREKCHQYWPAERSARYQYFVVDPMAEYNMPQYILREFKVTDARDGQSRTIRQFQFTDWPEQGVPKTGEGFIDFIGQVHKTKEQFGQDGPITVHCSAGVGRTGVFITLSIVLERMRYEGVVDMFQTVKTLRTQRPAM
